Where two headings read alike, the source gives them in different places.

The text below walks through data of patent publication US20240317873A1 (CITY OF HOPE, published 2024).

The target of experiment [1] is T1, human HVEM on the surface of cells (MM.1S myeloma cells, patient myeloma cells, Jurkat cells overexpressing … (human, UniProt Q92956 39-283)).
T1 construct: whole, on cells; also called CD270; TNFRSF14
T1 sequence (looked up): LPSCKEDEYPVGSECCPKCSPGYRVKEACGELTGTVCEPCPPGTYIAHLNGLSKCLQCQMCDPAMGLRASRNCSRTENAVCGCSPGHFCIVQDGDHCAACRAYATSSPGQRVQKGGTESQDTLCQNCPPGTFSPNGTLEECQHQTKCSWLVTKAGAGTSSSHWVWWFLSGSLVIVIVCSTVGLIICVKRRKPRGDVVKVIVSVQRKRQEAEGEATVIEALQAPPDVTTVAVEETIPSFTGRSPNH
In words: imaging mass cytometry, 166Er-conjugated antibody, mouse bone marrow engrafted with MM1.S cells. The procedure:
Mass cytometry was performed on mice bone marrow tissues engrafted with MM1.S cells. […] HVEM-4, 5, 13, 17, and 22 were used for staining and the nucleus was counterterstained with Ir-191.

The target of experiment [2] is T2, HVEM (SinoBio, monomeric) (human, UniProt Q92956 39-202).
T2 construct: Bought protein immobilised on a CM5 chip by EDC/NHS coupling; also called hHVEM; TNFRSF14
T2 sequence (looked up): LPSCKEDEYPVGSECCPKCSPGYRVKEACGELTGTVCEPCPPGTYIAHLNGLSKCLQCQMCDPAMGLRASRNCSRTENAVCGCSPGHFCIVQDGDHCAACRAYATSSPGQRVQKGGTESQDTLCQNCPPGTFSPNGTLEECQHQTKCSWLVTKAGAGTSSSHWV
In words: SPR; the chip of this figure is not described, the only SPR set-up of the filing is HVEM (SinoBio, monomeric) on CM5. (SPR reads the build-up and loss of mass on a sensor chip optically.)

In experiment [3] the target is T2, HVEM (SinoBio, monomeric). Described as above. The source holds these as a separate data set.
The target of experiment [4] is T1, human HVEM on the surface of cells …. Briefly: imaging mass cytometry, 166Er-conjugated antibody, bone marrow of a multiple myeloma patient. The procedure: Mass cytometery was performed on bone marrow from a patient with multiple myeloma. […] HVEM-4, 5, 13, 17, and 22 were used for staining and the nucleus was counterterstained with Ir-191.
Experiment [5] deals with T3, HVEM recombinant protein (ELISA-based competition assay) (human, UniProt Q92956 39-202, limits assumed).
T3 construct: The internal control used a biotin-labeled human HVEM; also called recombinant protein of HVEM; biotin-labeled human HVEM
T3 sequence (looked up): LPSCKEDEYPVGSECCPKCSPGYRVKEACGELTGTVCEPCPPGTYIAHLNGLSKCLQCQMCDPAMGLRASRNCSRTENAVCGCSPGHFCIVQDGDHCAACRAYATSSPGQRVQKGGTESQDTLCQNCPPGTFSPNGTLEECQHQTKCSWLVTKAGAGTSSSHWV
Briefly: ELISA-based competition assay with recombinant proteins: binding of biotin-labelled HVEM to recombinant LIGHT (the blocked ligand), antibody titrated. A general note: In an ELISA, binding on a coated surface is turned into a signal by an enzyme label.

In experiment [6] the target is T2, HVEM (SinoBio, monomeric). In words: SPR, HVEM immobilised on CM5 chip, Fab as analyte, 25 C.
The target in experiment [7] is T2, HVEM (SinoBio, monomeric). In words: SPR; the chip of this figure is not described, the only SPR set-up of the filing is HVEM (SinoBio, monomeric) on CM5. The source holds these as a separate data set.

B1: anti-HVEM antibody clone 17 (antibody, human IgG1, kappa, V domains shown)
VH: QIQLVQSGPELKKPGEPVKISCRASGYTLTNFGMNWVKQAPGKGLKWMGWINTYTGEPTYADDFKGRFAFSLETSASTAYLQINNLKNEDTATYFCARSFYGNEHYWGQGTSVTVSS
VL: QIVLTQSPAIMSASPGEKVTLTCSASSSVSSSYLFWYQQKPGSSPKLWIYSTSNLASGVPARFSGHGSGTSYSLTISSMEAEDAASYFCHQWSSYPYTFGGGTKLEIKR
notes: also called HVEM17; HVEM-17
As for B1, the binding result in experiment [1] and in experiment [2] was “binds” throughout.

B2: anti-HVEM antibody clone 22 (antibody, human IgG1, kappa, V domains shown)
VH: QVQLQQSGAELVRPGASVTLSCKTSGYTFIHYEIHWVKQSPVHGLEWIGAIDPETGGTADNQKFKDKVTLTADKSSNTAYMDLRSLTSEDSAVYYCTRGDWVFAYWGQGTLVTVSA
VL: DVVMTQTPLSLPVSLGDQASISCRSSQSPLHSNGNTYLDWYLQKPGQSPKLLIYKVSNRFSGVPDRFSGSGSGTDFTLKISRVEAEDLGIYFCSQTTHVPPTFGGGTKLEIKR
notes: also called HVEM22; HVEM-22
B2: the binding result in experiment [3] and in experiment [4] was “binds” throughout.

B3: mcHVEM13 IgG (clone 13) (antibody, V domains shown)
VH: QIQLVQSGPELKKPGETVKISCKASGYILTNYGMNWVKQAPGKGLKWMGWINTYTGEPTYADAFKGRFAFSLETSASTAYLQINNLKNEDTATYFCARGYGNHWYFDYWGQGTSVTVSS
VL: QIVLTQSPAILSASPGEKVTMTCSASSSVSYMHWYQRKSGTSPKRWIYDTSKLASGVPARFSGSGSGTSYSLTISSMEAEDAATYYCQQWTSDPLTFGAGTKLELKR
notes: Murine chimeric IgG; The constant region of the tested IgG is not spelled out; Metal-conjugated in mass cytometry; also called anti-HVEM13; aHVEM13
As for B3, in experiment [5], the “IC50 (read off the curve)” value was approximately 20 nM.

B4: mcHVEM13 Fab (clone 13) (Fab, V domains shown)
VH: QIQLVQSGPELKKPGETVKISCKASGYILTNYGMNWVKQAPGKGLKWMGWINTYTGEPTYADAFKGRFAFSLETSASTAYLQINNLKNEDTATYFCARGYGNHWYFDYWGQGTSVTVSS
VL: QIVLTQSPAILSASPGEKVTMTCSASSSVSYMHWYQRKSGTSPKRWIYDTSKLASGVPARFSGSGSGTSYSLTISSMEAEDAATYYCQQWTSDPLTFGAGTKLELKR
notes: Murine chimeric Fab; also called new mcHVEM13 Fab; anti-hHVEM murine chimeric Fab clone 13
Usually Kd stands for the concentration at which binding is half-saturated. As a reminder, the koff is a measure of how fast the partners let go of each other. The term kon denotes the second-order rate constant of association. The low end stands for slower complex formation, the high end for faster complex formation. Regarding B4, in experiment [6], the equilibrium dissociation constant (Kd) is 99.6 nM, the koff amounted to 0.138 s⁻¹ and the kon worked out at 1.38e+06 M⁻¹ s⁻¹.

B5: HVEM 23Ab (antibody, human IgG1, kappa, V domains shown)
VH: QIQLVQSGPELKKPGETVKISCKASGYTFTNFGMNWVKQAPGKALKWVGWINTYTGEPTYADDFKGRFAFSLETSATTAYLQISNLKNEDTATYFCARSYYFVTSEDYWGQGTSVTVSS
VL: QIVLTQSPAIMSASPGERVTMTCTARSSVSSSYLHWYQQKPGSSPKLWIYSTSNLASGVPARFSGSGSGASYSLTNSSMEAEDAATYYCHQYHRSTWTFGGGTKLEIKR
notes: also called anti-HVEM antibody clone 23
With B5, the binding result in experiment [7] was “no binding (tested: 100 nM)”.
